The text below walks through data of patent US20100004431A1 (Xencor, published 2010).

Like-named read-outs stand apart in the source and are kept apart here.

By Kd is commonly meant the free concentration of one partner at which half of the binding sites on the other are occupied at equilibrium, for simple one-to-one binding. The term koff denotes the rate constant with which the complex falls apart. A low value points to a long-lived complex. By kon is commonly meant the rate constant with which the complex forms. Low values mean slower complex formation, high ones faster complex formation.

In assay [1] the target is T1, CD25 (R&D systems cat. #223-2A/CF) (UniProt P01589 22-213, limits assumed).
T1 construct: Bought soluble protein
T1 sequence (looked up): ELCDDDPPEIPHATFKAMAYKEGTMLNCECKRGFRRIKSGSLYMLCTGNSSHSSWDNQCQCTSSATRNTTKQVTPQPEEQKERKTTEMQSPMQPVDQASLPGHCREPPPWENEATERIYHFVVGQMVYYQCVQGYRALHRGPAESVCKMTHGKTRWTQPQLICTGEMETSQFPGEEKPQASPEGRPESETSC
The experiment in a line: Biacore (SPR); antibody captured on Protein A, CD25 injected.
Experimental: (§1) Binding was measured by injection of two-fold serial dilutions of CD25 (0 nM to 50 nM; R&D systems) in buffer at 25° C. with a flow rate of 25-30 μL/min for 2 min followed by a dissociation phase of 4-5 min. Association rates (kₒₙ) and dissociation rates (koff) were calculated using a simple one-to-one Langmuir binding model (BIAcore Evaluation Software version 3.2). The equilibrium dissociation constant (Kd) was calculated as the ratio of koff/kₒₙ).

Assay [2] has as its target T1, CD25 (R&D systems cat. #223-2A/CF). The assay is described as above. The source holds these as a separate data set.
Experimental: as §1

B1: anti-CD25 H1.14L1.48 (antibody, V domains shown)
VH: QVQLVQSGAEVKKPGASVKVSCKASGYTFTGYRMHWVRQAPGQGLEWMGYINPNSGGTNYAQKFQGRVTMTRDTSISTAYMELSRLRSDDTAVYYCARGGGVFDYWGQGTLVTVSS
VL: EIVLTQSPATLSLSPGERATLSCRASQSVSYMHWYQQKPGQAPRLLIYTTSNRATGIPARFSGSGSGTDFTLTISSLEPEDFAVYYCHQRSTYPLTFGSGTKLEIK
For B1, in assay [1], the “Fold change in Kd vs. H0L0” value was 1.2 fold; the affinity, expressed as Kd, was 0.21 nM; the koff turned out to be 0.00017 s⁻¹; the kon was 790000 M⁻¹ s⁻¹.

B2: anti-CD25 H1.23L1.20 (antibody, V domains shown)
VH: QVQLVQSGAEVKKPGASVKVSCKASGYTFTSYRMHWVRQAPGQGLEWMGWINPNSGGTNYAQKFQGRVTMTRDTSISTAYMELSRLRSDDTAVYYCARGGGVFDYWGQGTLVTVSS
VL: EIVLTQSPATLSLSPGERATLSCRASQSVSYLHWYQQKPGQAPRLLIYTTSNRATGIPARFSGSGSGTDFTLTISSLEPEDFAVYYCHQRSTYPLTFGSGTKLEIK
Take B2: in assay [1], the “Fold change in Kd vs. H0L0” value was determined as 1.2 fold, the Kd came out at 0.22 nM, the off-rate (koff) amounted to 0.00016 s⁻¹ and the kon was 710000 M⁻¹ s⁻¹.

B3: anti-CD25 H1.23L1.48 (antibody, V domains shown)
VH: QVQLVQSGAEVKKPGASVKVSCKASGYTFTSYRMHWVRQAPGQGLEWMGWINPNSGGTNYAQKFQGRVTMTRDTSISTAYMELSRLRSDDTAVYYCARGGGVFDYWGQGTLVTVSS
VL: EIVLTQSPATLSLSPGERATLSCRASQSVSYMHWYQQKPGQAPRLLIYTTSNRATGIPARFSGSGSGTDFTLTISSLEPEDFAVYYCHQRSTYPLTFGSGTKLEIK
With B3, in assay [1], the “Fold change in Kd vs. H0L0” value was 1.1 fold, the Kd was 0.23 nM, the koff was found to be 0.00018 s⁻¹ and the kon is 750000 M⁻¹ s⁻¹.

B4: anti-CD25 H1.1L1 (antibody, V domains shown)
VH: QVQLVQSGAEVKKPGASVKVSCKASGYTFTSYRMHWVRQAPGQGLEWMGYINPSTGYTEYNQKFQGRVTITRDKSISTAYMELSRLRSDDTAVYYCARGGGVFDYWGQGTLVTVSS
VL: QIVLTQSPATLSLSPGERATLSCRASSSISYMHWFQQKPGQSPQLLIYTTSNLASGVPARFSGSGSGTDYTLTISSLQPEDFAVYYCHQRSTYPLTFGSGTKLEIK
notes: Single variant in the anti-CD25 H1L1 background; also called VH A71R single variant
B4: in assay [2], the “Fold change in Kd vs. H1L1” value was determined as 2 fold, the Kd amounted to 0.16 nM, the koff stood at 0.00031 s⁻¹ and the kon was found to be 1.9e+06 M⁻¹ s⁻¹.

B5: anti-CD25 H1.22L1.56 (antibody, V domains shown)
VH: QVQLVQSGAEVKKPGASVKVSCKASGYTFTSYRMHWVRQAPGQGLEWMGWINPNSGGTNYAQKFQGRVTITRDTSISTAYMELSRLRSDDTAVYYCARGGGVFDYWGQGTLVTVSS
VL: QIVLTQSPATLSLSPGERATLSCRASQSVSYLHWFQQKPGQSPQLLIYTTSNRATGIPARFSGSGSGTDFTLTISSLEPEDFAVYYCHQRSTYPLTFGSGTKLEIK
Turning to B5, in assay [1], the “Fold change in Kd vs. H0L0” value worked out at 1.2 fold, the Kd is 0.22 nM, the koff was determined as 0.00022 s⁻¹ and the kon was 970000 M⁻¹ s⁻¹.

B6: anti-CD25 H1.14L1.43 (antibody, V domains shown)
VH: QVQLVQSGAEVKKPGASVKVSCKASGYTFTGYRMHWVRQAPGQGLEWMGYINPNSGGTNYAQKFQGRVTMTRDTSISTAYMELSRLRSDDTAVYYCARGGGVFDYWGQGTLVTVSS
VL: EIVLTQSPATLSLSPGERATLSCRASQSVSYLHWYQQKPGQAPRLLIYTTSNRATGIPARFSGSGSGTDYTLTISSLQPEDFAVYYCHQRSTYPLTFGSGTKLEIK
B6: in assay [1], the “Fold change in Kd vs. H0L0” value was -1.3 fold, the Kd was 0.32 nM, the koff turned out to be 0.00022 s⁻¹ and the kon was 670000 M⁻¹ s⁻¹.

B7: anti-CD25 H1.12L1.43 (antibody, V domains shown)
VH: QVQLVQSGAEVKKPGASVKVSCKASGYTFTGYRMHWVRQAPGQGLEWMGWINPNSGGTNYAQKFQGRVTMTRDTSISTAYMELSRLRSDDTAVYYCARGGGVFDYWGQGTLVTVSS
VL: EIVLTQSPATLSLSPGERATLSCRASQSVSYLHWYQQKPGQAPRLLIYTTSNRATGIPARFSGSGSGTDYTLTISSLQPEDFAVYYCHQRSTYPLTFGSGTKLEIK
For B7, in assay [1], the “Fold change in Kd vs. H0L0” value was determined as 1.4 fold, binding was characterised by a dissociation constant (Kd) of 0.19 nM, the koff amounted to 0.00014 s⁻¹ and the kon is 720000 M⁻¹ s⁻¹.

B8: anti-CD25 H1.12L1.56 (antibody, V domains shown)
VH: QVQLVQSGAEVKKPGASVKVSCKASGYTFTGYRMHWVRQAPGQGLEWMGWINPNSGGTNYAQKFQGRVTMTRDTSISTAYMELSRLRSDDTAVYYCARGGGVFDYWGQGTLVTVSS
VL: QIVLTQSPATLSLSPGERATLSCRASQSVSYLHWFQQKPGQSPQLLIYTTSNRATGIPARFSGSGSGTDFTLTISSLEPEDFAVYYCHQRSTYPLTFGSGTKLEIK
As for B8, in assay [1], the “Fold change in Kd vs. H0L0” value is 1.2 fold; the affinity, expressed as Kd, was 0.21 nM; the koff came out at 0.00018 s⁻¹; the kon is 850000 M⁻¹ s⁻¹.

B9: anti-CD25 H1.23L1.56 (antibody, V domains shown)
VH: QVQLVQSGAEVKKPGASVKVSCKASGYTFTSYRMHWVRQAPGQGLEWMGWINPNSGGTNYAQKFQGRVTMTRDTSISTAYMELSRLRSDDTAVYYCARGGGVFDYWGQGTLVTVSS
VL: QIVLTQSPATLSLSPGERATLSCRASQSVSYLHWFQQKPGQSPQLLIYTTSNRATGIPARFSGSGSGTDFTLTISSLEPEDFAVYYCHQRSTYPLTFGSGTKLEIK
B9: in assay [1], the “Fold change in Kd vs. H0L0” value was found to be 1.2 fold, the Kd is 0.21 nM, the koff was 0.0002 s⁻¹ and the kon was determined as 950000 M⁻¹ s⁻¹.

B10: anti-CD25 H1.14L1.56 (antibody, V domains shown)
VH: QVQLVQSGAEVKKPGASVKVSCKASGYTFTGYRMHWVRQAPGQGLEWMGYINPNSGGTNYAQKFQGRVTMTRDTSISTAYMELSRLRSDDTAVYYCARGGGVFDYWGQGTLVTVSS
VL: QIVLTQSPATLSLSPGERATLSCRASQSVSYLHWFQQKPGQSPQLLIYTTSNRATGIPARFSGSGSGTDFTLTISSLEPEDFAVYYCHQRSTYPLTFGSGTKLEIK
Consider B10, for which, in assay [1], the “Fold change in Kd vs. H0L0” value amounted to 1.6 fold, the Kd is 0.16 nM, the koff was 0.00017 s⁻¹ and the kon came out at 1e+06 M⁻¹ s⁻¹.

B11: anti-CD25 H1.22L1.20 (antibody, V domains shown)
VH: QVQLVQSGAEVKKPGASVKVSCKASGYTFTSYRMHWVRQAPGQGLEWMGWINPNSGGTNYAQKFQGRVTITRDTSISTAYMELSRLRSDDTAVYYCARGGGVFDYWGQGTLVTVSS
VL: EIVLTQSPATLSLSPGERATLSCRASQSVSYLHWYQQKPGQAPRLLIYTTSNRATGIPARFSGSGSGTDFTLTISSLEPEDFAVYYCHQRSTYPLTFGSGTKLEIK
For the molecule B11, in assay [1], the “Fold change in Kd vs. H0L0” value was 1.1 fold; the affinity, expressed as Kd, was 0.24 nM; the koff stood at 0.00018 s⁻¹; the kon amounted to 720000 M⁻¹ s⁻¹.

B12: anti-CD25 H1.22L1.48 (antibody, V domains shown)
VH: QVQLVQSGAEVKKPGASVKVSCKASGYTFTSYRMHWVRQAPGQGLEWMGWINPNSGGTNYAQKFQGRVTITRDTSISTAYMELSRLRSDDTAVYYCARGGGVFDYWGQGTLVTVSS
VL: EIVLTQSPATLSLSPGERATLSCRASQSVSYMHWYQQKPGQAPRLLIYTTSNRATGIPARFSGSGSGTDFTLTISSLEPEDFAVYYCHQRSTYPLTFGSGTKLEIK
For the molecule B12, in assay [1], the “Fold change in Kd vs. H0L0” value stood at 1.5 fold, the Kd came out at 0.17 nM, the koff came to 0.00014 s⁻¹ and the kon is 780000 M⁻¹ s⁻¹.

B13: anti-CD25 H1.22L1.43 (antibody, V domains shown)
VH: QVQLVQSGAEVKKPGASVKVSCKASGYTFTSYRMHWVRQAPGQGLEWMGWINPNSGGTNYAQKFQGRVTITRDTSISTAYMELSRLRSDDTAVYYCARGGGVFDYWGQGTLVTVSS
VL: EIVLTQSPATLSLSPGERATLSCRASQSVSYLHWYQQKPGQAPRLLIYTTSNRATGIPARFSGSGSGTDYTLTISSLQPEDFAVYYCHQRSTYPLTFGSGTKLEIK
As for B13, in assay [1], the “Fold change in Kd vs. H0L0” value was -1.1 fold, binding was put at a Kd of 0.3 nM, the koff was found to be 0.00019 s⁻¹ and the kon was 640000 M⁻¹ s⁻¹.

B14: anti-CD25 H1.4L1 (antibody, V domains shown)
VH: QVQLVQSGAEVKKPGASVKVSCKASGYTFTSYRMHWVRQAPGQGLEWMGYINPSTGYTEYNQKFQGRVTITADTSISTAYMELSRLRSDDTAVYYCARGGGVFDYWGQGTLVTVSS
VL: QIVLTQSPATLSLSPGERATLSCRASSSISYMHWFQQKPGQSPQLLIYTTSNLASGVPARFSGSGSGTDYTLTISSLQPEDFAVYYCHQRSTYPLTFGSGTKLEIK
notes: Single variant in the anti-CD25 H1L1 background; also called VH K73T single variant
With B14, in assay [2], the “Fold change in Kd vs. H1L1” value turned out to be 1.1 fold, the Kd was found to be 0.3 nM, the koff was 0.0006 s⁻¹ and the kon was found to be 2e+06 M⁻¹ s⁻¹.

B15: anti-CD25 H1L1.56 (antibody, V domains shown)
VH: QVQLVQSGAEVKKPGASVKVSCKASGYTFTSYRMHWVRQAPGQGLEWMGYINPSTGYTEYNQKFQGRVTITADKSISTAYMELSRLRSDDTAVYYCARGGGVFDYWGQGTLVTVSS
VL: QIVLTQSPATLSLSPGERATLSCRASQSVSYLHWFQQKPGQSPQLLIYTTSNRATGIPARFSGSGSGTDFTLTISSLEPEDFAVYYCHQRSTYPLTFGSGTKLEIK
notes: the fourth VL chain; also called VL combination variant L1.56 paired with H1
As for B15, in assay [1], the “Fold change in Kd vs. H0L0” value is -5 fold, the Kd is 1.3 nM, the koff was 0.0007 s⁻¹ and the kon came out at 540000 M⁻¹ s⁻¹.

B16: anti-CD25 H1L1.5 (antibody, V domains shown)
VH: QVQLVQSGAEVKKPGASVKVSCKASGYTFTSYRMHWVRQAPGQGLEWMGYINPSTGYTEYNQKFQGRVTITADKSISTAYMELSRLRSDDTAVYYCARGGGVFDYWGQGTLVTVSS
VL: EIVLTQSPATLSLSPGERATLSCRASSSISYMHWFQQKPGQSPQLLIYTTSNLASGVPARFSGSGSGTDYTLTISSLQPEDFAVYYCHQRSTYPLTFGSGTKLEIK
notes: Single variant in the anti-CD25 H1L1 background; also called VL Q1E single variant
On to B16, for which, in assay [2], the “Fold change in Kd vs. H1L1” value turned out to be 1.1 fold, the Kd came to 0.29 nM, the koff was found to be 0.00052 s⁻¹ and the kon was 1.8e+06 M⁻¹ s⁻¹.

B17: anti-CD25 H1L1.20 (antibody, V domains shown)
VH: QVQLVQSGAEVKKPGASVKVSCKASGYTFTSYRMHWVRQAPGQGLEWMGYINPSTGYTEYNQKFQGRVTITADKSISTAYMELSRLRSDDTAVYYCARGGGVFDYWGQGTLVTVSS
VL: EIVLTQSPATLSLSPGERATLSCRASQSVSYLHWYQQKPGQAPRLLIYTTSNRATGIPARFSGSGSGTDFTLTISSLEPEDFAVYYCHQRSTYPLTFGSGTKLEIK
notes: also called VL combination variant L1.20 paired with H1
For B17, in assay [1], the “Fold change in Kd vs. H0L0” value is -4.2 fold, the Kd was found to be 1.1 nM, the koff stood at 0.00048 s⁻¹ and the kon was determined as 430000 M⁻¹ s⁻¹.

B18: anti-CD25 H1L1.48 (antibody, V domains shown)
VH: QVQLVQSGAEVKKPGASVKVSCKASGYTFTSYRMHWVRQAPGQGLEWMGYINPSTGYTEYNQKFQGRVTITADKSISTAYMELSRLRSDDTAVYYCARGGGVFDYWGQGTLVTVSS
VL: EIVLTQSPATLSLSPGERATLSCRASQSVSYMHWYQQKPGQAPRLLIYTTSNRATGIPARFSGSGSGTDFTLTISSLEPEDFAVYYCHQRSTYPLTFGSGTKLEIK
notes: also called VL combination variant L1.48 paired with H1
In the case of B18, in assay [1], the “Fold change in Kd vs. H0L0” value was -2.4 fold; the affinity, expressed as Kd, was 0.63 nM; the koff amounted to 0.00031 s⁻¹; the kon came to 500000 M⁻¹ s⁻¹.

B19: anti-CD25 H1L1.43 (antibody, V domains shown)
VH: QVQLVQSGAEVKKPGASVKVSCKASGYTFTSYRMHWVRQAPGQGLEWMGYINPSTGYTEYNQKFQGRVTITADKSISTAYMELSRLRSDDTAVYYCARGGGVFDYWGQGTLVTVSS
VL: EIVLTQSPATLSLSPGERATLSCRASQSVSYLHWYQQKPGQAPRLLIYTTSNRATGIPARFSGSGSGTDYTLTISSLQPEDFAVYYCHQRSTYPLTFGSGTKLEIK
notes: also called VL combination variant L1.43 paired with H1
In the case of B19, in assay [1], the “Fold change in Kd vs. H0L0” value was -5 fold; the affinity, expressed as Kd, was 1.3 nM; the koff turned out to be 0.00053 s⁻¹; the kon was found to be 410000 M⁻¹ s⁻¹.
